Source: the nanobody polyreactivity screen of Harvey et al. (2022)

Assay: yeast display, Sf9 membrane polyspecificity reagent, FACS + sequencing; frameworks hold sequencing errors
Procedure, shortened: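 Galactose-induced (36–48 hours) yeast carrying a synthetic nanobody display library were exposed to 10% biotinylated, detergent-solubilized Sf9 membrane reagent at 4 °C for 1 hour. FACS followed streptavidin microbead enrichment, using low and high (top ~1%) gates for expression (anti-HA) and reagent binding (streptavidin). Colony PCR, MiSeq 2 × 250 sequencing and CDR-length filtering followed. Labels for polyreactivity reflect the gate of origin.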

| Sequence | polyreactivity (PSR sort gate) |
| --- | --- |
| QVQLVESGGGLVQAGGSLRLSFAASGRTFGTNGMGWYRQAPGKEREFVAAITWNGGGTYYADSVKGRFTISRDNAKNTVYLQMNSLKPEDTSVYYSAKRTRWNYKGYGTGGYYWGQGTQVTVSS | high polyreactivity |
| QVQLVESGGGLVQAGGSLRLSCAASGRTFQRYTMGWYRPAPGKETELVAVITNGGTRTYYADYVKGRLTISRDYAKNTVYLQMNSLKPEYTAVYYCAARVRYTANYDYWGQGTQVTVSS | high polyreactivity |
| QVQLVESGGGLVQAGGSLRLSCAASGRIFGAYAMGWYRPAPGKERELVAAISARGGRTYYADSVKGRFTISRDNAKNTVYLQMNSLKPEDTAVYYCAKTLRDPYRYDYWGQGTQVTVSS | high polyreactivity |
| QVQLVESGGGLVQAGGSLRLSCAASGSTFFRYAMGWYRQAPGKERELVAAISKSGGTTSYADSVKGRITISRDNAKNTVYLQMNSLKQEDTAVYYCAARVQHIYDWGQGTQVTVSS | high polyreactivity |
| QVQLVESGGGLVQAGGSLRLSCAASGRIFARNAMGWYRQAPGKERELVAVITSRGGSTYYADSVKGRFTISRDNAKNTVYLQMNSLKPEDTAVYYCAARYSGEYGYWGQGTQVTVSS | high polyreactivity |
| QVQLVESGGGLVQAGGSLRLSCAASGSTFRHNVMGWYRQAPGKERELVAAISYSGGSTHYADSVKGRFTISRDNAKNTVYLQMNSLKPEDTAVYYCNRYSYDSHFLYPFRGHDYWGQGTQVTVSS | low polyreactivity |
| QVQLVESGGGLVQAGGSLRLSCAASGSIFHGYAMGWYRHAPGKERELVAAITWSGGRTYYADSVKGRFTISRDNAKNNVYLQMNSLKPEDTAVYYCAAVALTRRYDYWGQGTQVTVSS | high polyreactivity |
| QVQLVESVRGLVQAGGSLRISCASSGSTFFTYPMGWYRQAPGKERELVASISIGGSTNYADSVKGRFTISRDNAKNTVYLQMNSLKPEDTAVYYCAKRYFTFGVDYDYWGQGTQVSVSS | low polyreactivity |
| QVQLVESGGGLVQAGGSLRLSCAASGSIFGWNAMGWYRQAPGKERELVAAISSGGSTYYADSVKGRFTISRDNAKNTVYLQMNSMKPEDPAVYYCNAYFQYYDYWGQGTQVTVSS | low polyreactivity |
| QVQLVESGGGLVQAGGSLRLSCAASGRIFDYNVMGWYRQPPGKESELVAAISWDGDSTYYADSVKGRFTISRDNAKNSVYLQMKSLKPEDTAVYYCNRVEGGTSWADEMNYWGQGTQVTVSS | low polyreactivity |
| QVQLVESGGGLVQAGGSLRISCAASGRTLGYNAMGWYRQAPGKERELVAAISWSGGSTYYADSVKGRFTISRDNAKNTVYLQMNSLNPEDTAVYYCAARNNRYPLYNYWGQGTQVTVSS | low polyreactivity |
| QVQLVESGGGLVQAGGSLRLSCAASGRTFGTNAMGWYRQAPGKERELVAAINQNGGSTYYADSVKGRFTISRDNAKNTVYLQMNSLKPEDTAVYYCAARSLDRYYHNANYYPYYYWGQGTQVTVSS | high polyreactivity |
| QVQLVESGGGLVQAGGSLRLSCAASGRIFVKNAMGWYRQAPGKERELVAAISSSSGSTYYADSVKGRFTISRDNAKNTVYLQMNSLKPEDTAVYYCATVRWYYSRPRPTTAYGYWGQGTQVTVSS | high polyreactivity |
| QVQRVESGGVLVQAGGSLRLSCAASGITFYVYAMGWYRQAPGKERELVASITRSVGITSYADSVKGRFTISRDNSKNTVYLQMNSLKQEDSAVYYCAAERSNLHYNIQGVGYWGQGTQVTVSS | low polyreactivity |
| QVQLVESGGGLVQAGGSLRLSCDASGSTFYSYTMGWSRQAPGKERELVATISWSGSSTYDADSVKGRFTISRDNAKNTVYLQMNSLTPEDTAVYYSAAVHYDKSAYWWWYNYWGQGTLVTVSS | low polyreactivity |
| QVQLVDSGGGLVQAGGSLRLSCAASGSTFPSNAMGWYRQAPGKERELVASIDRGGSTNNADSVKGRFTISRDNAKNTVYLQMNRLKPEDTAVYYCAAKRWPYWDISVYYWGYDYWGQGTQVTVSS | low polyreactivity |

| Sequence | polyreactivity (PSR sort gate) |
| --- | --- |
| QVQLVESGGGLVQAGGSLRLSCAASGSTFRPNAMGWYRQAPGKERELVAAISRSGVSTYYADSVKGRFTISRDNAKNTVYLQMNSLQPEDTAVYYCARRYTGRPVLRESWGQGTQVTVSS | low polyreactivity |
| QVQLVESGGGLVQAGGSLRLSCAASGSTFRLNAMGWYRQSPGKERELVAAISRGGSTNYADSVKGRFTISRDNAKNTVYLQMNSLKPEDTAVYYCATRRSYKYYWGQGTQVTVSS | high polyreactivity |
| QVQLEESGGGLVQAGGSLRLSCAASGRIFGVYAMGWYRQAPGKERELVAAISWSASSTYYADSVKGRFTISRDNAKNTVYLQMNSLKPEDTAVYYCNAEVLGFYELDYWGQGTQVTVSS | high polyreactivity |
| QVQLVESGGGLVQAGGSLRLSCAASGSTFRSYTMGWYRQAPGKERELVADINGTGGSTYYADSVKGRFTISRDNAKNTVYLQMNSLKPEDTAVYYCAADGYFRTVTSGWALRMGYWGQGTQVTVSS | high polyreactivity |
| QVQLVESGGGLVQAGGSLRLSCAASGRTFYPYAMGWYRQAPGKERELVAAISSSGGSTYYADSVKGRFTISRDNAKNTVYLQRNSLKPEYTPVYYCASYLRPGGNYYWGQGTQVTVSS | high polyreactivity |
| QVQLVESGGGLVQAGGSLRLSCAASGRTFLTYAMGWYRQAPGKERELVAAITDGDSTNYADSVKGRFTISRDNAKNTVYLQMNSLKPEDTAVYYCNADSLAYRYYYWGKGTQVTVSS | high polyreactivity |
| QVHLVESGGGLVQAGGSLRLSCAASGRIFTYYAMGWYRQAPGKEREFVAAIRRSGGSTDYADSVKGRFTISRDNAKNTVYLQMNSLKPEDTAVYYCAAESPTYPGGEYWGQGTQVTVSS | high polyreactivity |
| QVQLVESGGGLVQAGGSLRLSCAASGSIFFPNAMGWYRQAPGKERELVAAITSTSTNYADSVKGRCTISRDNAKNTVYLQMNSLKPEDTAVYYCAADGEFRRAWYEGVYWGQGTQVTVSS | low polyreactivity |
| QVQLVESGGGLVQAGGSLRLSCAASGSIFWLYAMGWYRQAPGKERELVARINWSGGNTYYADSVKGRFTISRDNAKNTDYLQMNSLKPEDTAVYYCNARSQYRMNYWGQGTQVTGSS | low polyreactivity |
| QVQLVESGGGLVQAGGSLRLSCAASGFTFYENAMGWYRQAPGKERELVATISYSGGTTYYADSVKGRFTISRDNAKNTVYLQMNSLKPEDTAVYYCNADYFYYGFPDDYWGQGTQVTVSS | low polyreactivity |
| QVQLVESGGCLVQAGGRLRLSSAASGRTIGWNAMGWYRQAPGTEREFVAAITISGGDTYYADSVKGRFTISRDNAKNNVYFQMNSLKPEDTAVYYCAATSTWRPSFEMDYWGQGTQVTGSS | low polyreactivity |
| QHQLVESGGGLVQAGGSLRLSCAASGSIFWRYVMGWYRPAPGKERELVAAISSGGGITYYADSVTGRFTISRDTAKNTLYLQMNSLKPEDTAVYYCAAYGSLSPKYGYWGQGTQVNVSS | high polyreactivity |
| QVQLVESGGGLVQAGGSLRLSCAASGSIFYGYAMGWYRQAAGKERELVARITGSGGDTSYADSVKGRFTISRDNSKNTVYLQMNSLKPEDTALYYCNTDLYITYTLYTGSEYDYWGQGTQVTVSS | low polyreactivity |
| QVQLVESGGGLVQAGGSLRLSCAASGSTFGLYAMGWYRQAPGKERELVAAISYNTGRTYYADSVKGRFTISRDNAKNTVYLQMNSLKPEDTAVYYCAAEYFIWSYTRYEYWGQGTQVTVSS | high polyreactivity |
| QVQLVESGGGLVQAGGSLRLSCAASGRIFDGYAIGWYRQAPGKERDLVAAISWGGGSTYYADSVKGRFTISRDNAKNTVYLQMNSLKPDDTAVYYCAGDGIWAREMDYWGQGTQVTVSS | low polyreactivity |
| QVQLVESGGGLVQAGGSLRLSCAASGFTFVRYTMGWYRQAPGKERELVAVIRRGGSTYYADSVKGRFTISRDNAKNTVYLQMNSLKPEDTAVYYCNALSALAVEDGYWGQGTQVTVSS | low polyreactivity |
